Laboratory results taken from the array DNA melting data of Ke et al..

experiment: melting temperature; melt of duplexes; conditions: sodium 0.0675 M; strand 1 µM

Substance	Tm
CGACGTGCCGGATGTGCTG+CAGCACATCAGGCACGTCG (((((((((.(((((((((+))))))))).)))))))))	62.6 °C
CGACGTGCCCAATGTGCTG+CAGCACATCGCGCACGTCG ((((((((.(.((((((((+)))))))).).))))))))	48.7 °C
CGACGTGCCTAATGTGCTG+CAGCACATTGAGCACGTCG ((((((((..(((((((((+)))))))))..))))))))	52.7 °C
CGACGTGCGACATGTGCTG+CAGCACATCCGGCACGTCG ((((((((...((((((((+))))))))...))))))))	48.9 °C
CGACGTGCCGAATGTGCTG+CAGCACATTCGGCACGTCG (((((((((((((((((((+)))))))))))))))))))	66.5 °C
CGACGTGCACTATGTGCTG+CAGCACATGGCGCACGTCG ((((((((.(.((((((((+)))))))).).))))))))	50.3 °C
CGACGTGCGCGATGTGCTG+CAGCACATAAAGCACGTCG ((((((((...((((((((+))))))))...))))))))	54 °C
CGACGTGCTTGATGTGCTG+CAGCACATTTAGCACGTCG (((((((((..((((((((+))))))))..)))))))))	52.5 °C
CGACGTGCTCGATGTGCTG+CAGCACATAATGCACGTCG ((((((((...((((((((+))))))))...))))))))	49.7 °C
CGACGTGCGAAATGTGCTG+CAGCACATATAGCACGTCG ((((((((.(.((((((((+)))))))).).))))))))	54.3 °C
CGACGTGCGGCATGTGCTG+CAGCACATGCCGCACGTCG (((((((((((((((((((+)))))))))))))))))))	68.9 °C
CGACGTGCACTATGTGCTG+CAGCACATCTGGCACGTCG ((((((((...((((((((+))))))))...))))))))	44.2 °C
CGACGTGCTTAATGTGCTG+CAGCACATGGTGCACGTCG ((((((((...((((((((+))))))))...))))))))	50.3 °C
CGACGTGCTGGATGTGCTG+CAGCACATGCAGCACGTCG ((((((((((.((((((((+)))))))).))))))))))	61.3 °C
CGACGTGCCTTATGTGCTG+CAGCACATCTCGCACGTCG ((((((((...((((((((+))))))))...))))))))	46.6 °C
CGACGTGCCGTATGTGCTG+CAGCACATCCTGCACGTCG ((((((((.(.((((((((+)))))))).).))))))))	49.7 °C
CGACGTGCAAGATGTGCTG+CAGCACATTCCGCACGTCG ((((((((...((((((((+))))))))...))))))))	49.4 °C
CGACGTGCAATATGTGCTG+CAGCACATCAAGCACGTCG ((((((((...((((((((+))))))))...))))))))	48 °C

Substance	Tm
CGACGTGCCGGATGTGCTG+CAGCACATTTAGCACGTCG ((((((((...((((((((+))))))))...))))))))	49.4 °C
CGACGTGCCGAATGTGCTG+CAGCACATACCGCACGTCG ((((((((.(.((((((((+)))))))).).))))))))	49.5 °C
CGACGTGCCTAATGTGCTG+CAGCACATGACGCACGTCG ((((((((.(.((((((((+)))))))).).))))))))	46.4 °C
CGACGTGCACAATGTGCTG+CAGCACATTCTGCACGTCG (((((((((.(((((((((+))))))))).)))))))))	51.7 °C
CGACGTGCGGCATGTGCTG+CAGCACATCGAGCACGTCG ((((((((...((((((((+))))))))...))))))))	53.6 °C
CGACGTGCTAGATGTGCTG+CAGCACATAAGGCACGTCG ((((((((...((((((((+))))))))...))))))))	51.4 °C
CGACGTGCTTTATGTGCTG+CAGCACATAACGCACGTCG ((((((((.((((((((((+)))))))))).))))))))	53.6 °C
CGACGTGCTAAATGTGCTG+CAGCACATAGAGCACGTCG (((((((((..((((((((+))))))))..)))))))))	52.9 °C
CGACGTGCAGGATGTGCTG+CAGCACATGATGCACGTCG (((((((((..((((((((+))))))))..)))))))))	55 °C
CGACGTGCATAATGTGCTG+CAGCACATCGGGCACGTCG ((((((((...((((((((+))))))))...))))))))	48.2 °C
CGACGTGCAACATGTGCTG+CAGCACATTAAGCACGTCG ((((((((...((((((((+))))))))...))))))))	49.2 °C
CGACGTGCGCCATGTGCTG+CAGCACATCAGGCACGTCG ((((((((...((((((((+))))))))...))))))))	47.8 °C
CGACGTGCCTGATGTGCTG+CAGCACATGACGCACGTCG ((((((((.(.((((((((+)))))))).).))))))))	44.5 °C
CGACGTGCGCAATGTGCTG+CAGCACATGGCGCACGTCG ((((((((((.((((((((+)))))))).))))))))))	63 °C
CGACGTGCCGAATGTGCTG+CAGCACATCTTGCACGTCG ((((((((...((((((((+))))))))...))))))))	48.8 °C
CGACGTGCAGAATGTGCTG+CAGCACATGGAGCACGTCG ((((((((...((((((((+))))))))...))))))))	55.6 °C
CGACGTGCCCGATGTGCTG+CAGCACATAAGGCACGTCG (((((((((..((((((((+))))))))..)))))))))	54.5 °C
CGACGTGCCGGATGTGCTG+CAGCACATTGTGCACGTCG ((((((((...((((((((+))))))))...))))))))	47.3 °C
